Source: patent US20120039802A1 (published 2012)

What was measured:
[1] = target: T1, cMet-Fc fusion protein (extracellular domain of the cMet receptor expressed as an Fc-fusion protein) (human, UniProt P08581 25-932); assay: phage ELISA on cMet-Fc, competitor HGF 500 ng/mL
T1 construct: extracellular domain; also called soluble cMet-Fc-fusion protein; soluble cMet receptor; not shown: Fc part
Experimental: (§1) These assays were conducted using the peptide-displaying phage discovered from the initial selection and screening campaigns using the first generation peptide libraries. Briefly, 96-well plates were coated overnight at 4 C with 0.5 μg/mL of cMet-Fc fusion protein or TRAIL-Fc fusion protein (background). The plates were blocked for 2 hours at 37 C with 3% BSA in PBST. […] This was followed by an addition of 30 μL of peptide-displaying phage overnight culture to each well. The plates were incubated for 2 hours at room temperature, washed with PBST and cMet-binding peptide-displaying phage was detected using an HRP-conjugated anti-M13 antibody.

[2] = target: T2, human cMet expressed on 3T3 cells (human, UniProt P08581 25-1390); assay: whole cell phage ELISA, 3T3 human cMet vs 3T3
T2 construct: whole, on cells; cells fixed with glutaraldehyde; also called cell surface-expressed human cMet; 3T3 cells that over-express human cMet
T2 sequence (P08581 25-1390): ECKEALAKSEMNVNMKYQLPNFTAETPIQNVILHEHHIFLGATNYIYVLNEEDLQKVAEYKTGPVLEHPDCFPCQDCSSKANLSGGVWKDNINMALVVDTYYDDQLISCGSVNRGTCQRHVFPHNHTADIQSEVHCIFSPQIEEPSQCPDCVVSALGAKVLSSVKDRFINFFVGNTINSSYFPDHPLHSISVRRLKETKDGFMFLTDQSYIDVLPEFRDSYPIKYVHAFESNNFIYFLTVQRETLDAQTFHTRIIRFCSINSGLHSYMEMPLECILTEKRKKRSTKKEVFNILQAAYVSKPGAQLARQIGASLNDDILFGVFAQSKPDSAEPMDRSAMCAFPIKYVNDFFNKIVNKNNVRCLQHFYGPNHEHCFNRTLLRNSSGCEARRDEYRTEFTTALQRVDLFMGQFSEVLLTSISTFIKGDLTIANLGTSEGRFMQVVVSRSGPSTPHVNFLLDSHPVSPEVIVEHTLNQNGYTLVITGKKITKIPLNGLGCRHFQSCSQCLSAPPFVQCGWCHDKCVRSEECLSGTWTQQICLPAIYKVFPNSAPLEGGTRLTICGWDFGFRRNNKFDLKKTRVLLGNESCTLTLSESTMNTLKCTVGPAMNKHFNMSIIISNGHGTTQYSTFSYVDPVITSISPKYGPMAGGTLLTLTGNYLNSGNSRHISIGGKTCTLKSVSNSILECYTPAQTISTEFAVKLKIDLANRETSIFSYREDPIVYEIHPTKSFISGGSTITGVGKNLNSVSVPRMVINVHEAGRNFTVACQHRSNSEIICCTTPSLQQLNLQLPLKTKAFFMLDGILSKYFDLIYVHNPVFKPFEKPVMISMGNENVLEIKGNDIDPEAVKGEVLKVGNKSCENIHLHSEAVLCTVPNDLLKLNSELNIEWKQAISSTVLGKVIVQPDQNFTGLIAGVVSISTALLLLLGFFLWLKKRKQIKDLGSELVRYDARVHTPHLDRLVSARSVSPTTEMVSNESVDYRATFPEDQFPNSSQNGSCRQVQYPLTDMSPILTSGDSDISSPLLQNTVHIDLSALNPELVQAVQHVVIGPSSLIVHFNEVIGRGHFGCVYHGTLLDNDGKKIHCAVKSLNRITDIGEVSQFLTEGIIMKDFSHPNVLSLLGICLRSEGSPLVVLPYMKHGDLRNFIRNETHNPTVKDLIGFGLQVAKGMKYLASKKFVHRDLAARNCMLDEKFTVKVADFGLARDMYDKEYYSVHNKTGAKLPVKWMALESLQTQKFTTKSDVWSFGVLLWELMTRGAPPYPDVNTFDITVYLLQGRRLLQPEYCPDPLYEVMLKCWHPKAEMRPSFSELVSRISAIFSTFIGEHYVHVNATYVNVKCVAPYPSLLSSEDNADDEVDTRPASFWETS
Experimental: Whole cell ELISAs were performed using 3T3 cells that over-express human cMet. […] Briefly, 96-well plates were seeded with 10⁵ cells per well. The plates were centrifuged for 5 minutes at 1600 rpm to pellet the cells. The resulting cell layer was fixed with 0.1% (v/v) glutaraldehyde for 12 minutes at 37 C. […] Peptide-displaying phage also were blocked in the above solution for 1 hour at 37 C. 100 μL of blocked phage was then added to each well and the plates were incubated for 1 hour at room temperature. The plates were washed with PBST. cMet-binding peptide-displaying phage were detected using an HRP-conjugated anti-M13 antibody.

[3] = target: T1, cMet-Fc fusion protein (extracellular …); assay: phage ELISA on cMet-Fc, competitor HGF 100 ng/mL
Experimental: as §1

[4] = target: T1, cMet-Fc fusion protein (extracellular …); assay: phage ELISA, cMet-Fc vs TRAIL-Fc
Experimental: Protein phage ELISAs using peptide-displaying phage isolates from the various selection campaigns were performed to determine specificity of the peptides for cMet versus an unrelated Fc-fusion protein (TRAIL-Fe). Briefly, 384-well plates were coated overnight at 4 C with 0.5 μg/mL of cMet-Fc fusion protein or TRAIL-Fc fusion protein (background). The plates were blocked for 2 hours 37 C with 3% (w/v) BSA in PBS containing 0.05% (v/v) Tween-20 (PBST). The plates were washed with PBST and 100 μL of peptide-displaying phage were added to each well. The plates were incubated for 2 hours at room temperature and washed with PBST. cMet-binding peptide-displaying phage were detected using an HRP-conjugated anti-M13 antibody.

T1 sequence (P08581 25-932): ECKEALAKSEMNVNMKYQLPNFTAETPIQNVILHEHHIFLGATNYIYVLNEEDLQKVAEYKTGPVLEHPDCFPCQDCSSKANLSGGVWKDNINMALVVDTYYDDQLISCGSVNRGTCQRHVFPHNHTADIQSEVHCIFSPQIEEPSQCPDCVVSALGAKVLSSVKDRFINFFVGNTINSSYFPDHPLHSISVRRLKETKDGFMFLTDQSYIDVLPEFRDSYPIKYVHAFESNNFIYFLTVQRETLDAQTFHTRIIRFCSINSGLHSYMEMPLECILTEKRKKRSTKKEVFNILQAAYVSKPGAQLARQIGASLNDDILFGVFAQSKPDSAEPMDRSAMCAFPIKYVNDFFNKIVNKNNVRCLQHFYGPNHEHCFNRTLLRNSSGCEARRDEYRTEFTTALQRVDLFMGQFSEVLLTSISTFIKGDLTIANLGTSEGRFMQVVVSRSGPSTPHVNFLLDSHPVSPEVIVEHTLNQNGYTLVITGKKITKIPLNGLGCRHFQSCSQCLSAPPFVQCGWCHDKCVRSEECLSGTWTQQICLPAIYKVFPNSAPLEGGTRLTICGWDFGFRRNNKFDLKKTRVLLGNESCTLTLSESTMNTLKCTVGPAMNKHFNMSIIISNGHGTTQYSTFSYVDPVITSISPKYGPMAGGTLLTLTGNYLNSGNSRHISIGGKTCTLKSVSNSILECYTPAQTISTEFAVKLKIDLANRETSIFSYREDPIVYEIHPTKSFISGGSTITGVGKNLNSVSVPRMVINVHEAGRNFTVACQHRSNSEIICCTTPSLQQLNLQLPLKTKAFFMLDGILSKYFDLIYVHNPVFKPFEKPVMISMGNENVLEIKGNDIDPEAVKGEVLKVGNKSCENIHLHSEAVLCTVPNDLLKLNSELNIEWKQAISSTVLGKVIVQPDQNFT

Binder | % of binding in the absence of HGF [1] [%] | WC ELISA (fold over background) [2] [fold] | % of binding in the absence of HGF [3] [%] | Protein ELISA (fold over background) [4] [fold]
AGKQWCVVWEETCDQLGT [465-F10 peptide-displaying phage (SEQ ID NO: 039)] | 42 | 1.33 | 61 | 3.7
AGFWDCGWMMQDCHMHGT [470-C02 peptide-displaying phage (SEQ ID NO: 045)] | 227 | 1.33 | 340 | 3.9
GSSHLCNPEFCHFTAP [465-D09 peptide-displaying phage (SEQ ID NO: 003)] | 70 | 1.3 | 90 | 3.2
AGHFECPKHQYMCDMPGT [465-D04 peptide-displaying phage (SEQ ID NO: 042)] | 31 | 1.23 | 77 | 3.1
AGHTICQHKALGCPANGT [465-C07 peptide-displaying phage (SEQ ID NO: 041)] | 138 | 1.27 | 102 | 3.1
AGYYGCKGPPTFECQWMGT [330-F05 peptide-displaying phage (SEQ ID NO: 049)] | 27 | 1.33 | 51 | 13.8
AGNLPCHWNMSVCDHQGT [465-D01 peptide-displaying phage (SEQ ID NO: 034)] | 134 | 1.3 | 235 | 3.3
AGQMWCAEKNSKCYQWGT [465-D12 peptide-displaying phage (SEQ ID NO: 030)] | 0 | 1.27 | 34 | 3.2
AGGNWCSFYEELCEWLGT [445-E04 peptide-displaying phage (SEQ ID NO: 043)] | 102 | 1.37 | 127 | 4.2
AGQYLCTQAALGCPEWGT [465-E11 peptide-displaying phage (SEQ ID NO: 029)] | 124 | 1.23 | 33 | 4.3
AGTIRCNLAMMVCMFEGT [444-B08 peptide-displaying phage (SEQ ID NO: 028)] | 93 | 1.43 | 111 | 3.6
GSMLMCELWWCRFLAP [569-H10 peptide-displaying phage (SEQ ID NO: 004)] | 83 | 1.27 | 98 | 3.4
AGGHWCLELKHLCPPYGT [465-B06 peptide-displaying phage (SEQ ID NO: 044)] | 57 | 1.23 | 89 | 4.1
AGWTWCDLSMMSCIFHGT [573-E07 peptide-displaying phage (SEQ ID NO: 025)] | 82 | 1.37 | 77 | 3.2
AGETVCYWLNGWFCVDDGT [274-B07 peptide-displaying phage (SEQ ID NO: 073)] | 296 | 1.1 | – | 7.8
AGLLGCWDMPMECTGEGT [465-B11 peptide-displaying phage (SEQ ID NO: 036)] | 89 | 1.27 | 97 | 3.6
